Ends that are not written are not given here. * marks the point of attachment. Biotin = O=C1N[C@H]2[C@H](CS[C@H]2CCCCC(=O)*)N1
T1: GST-NeDLG PDZ domains 1-2 fusion protein (Mus musculus (Mouse), UniProt P70175 147-332)
T1 construct: also called NeDLG1; not shown: glutathione S-transferase (GST) encoded by pGEX-3X
T1 chain: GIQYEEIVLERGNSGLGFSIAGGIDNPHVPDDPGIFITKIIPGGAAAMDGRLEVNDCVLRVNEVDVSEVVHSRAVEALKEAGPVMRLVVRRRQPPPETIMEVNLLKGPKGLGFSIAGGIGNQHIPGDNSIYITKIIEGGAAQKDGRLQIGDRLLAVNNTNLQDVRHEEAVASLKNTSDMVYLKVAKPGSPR

T2: GST-MINT3 PDZ domain fusion protein (human)
T2 construct: also called human MINT3; not shown: glutathione S-transferase (GST) encoded by pGEX-3X
T2 chain: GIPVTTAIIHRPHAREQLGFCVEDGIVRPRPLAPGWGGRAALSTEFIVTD

T3: GST-MPP2 PDZ domain fusion protein
T3 construct: also called maguk p55 subfamily member 2 (DLG2); MMP2; not shown: glutathione S-transferase (GST) encoded by pGEX-3X
T3 chain: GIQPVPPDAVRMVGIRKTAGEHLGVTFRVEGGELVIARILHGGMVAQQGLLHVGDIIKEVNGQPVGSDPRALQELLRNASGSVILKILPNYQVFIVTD

T4: GST-TAX2 PDZ domain fusion protein (human, UniProt O14908 129-216)
T4 construct: not shown: glutathione S-transferase (GST) encoded by pGEX-3X
T4 chain: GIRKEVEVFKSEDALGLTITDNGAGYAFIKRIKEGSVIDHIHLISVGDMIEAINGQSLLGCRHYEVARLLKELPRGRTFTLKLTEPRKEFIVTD

T5: GST-DVL1 PDZ domain fusion protein (human)
T5 construct: also called human dishevelled segment polarity protein homolog; not shown: glutathione S-transferase (GST) encoded by pGEX-3X
T5 chain: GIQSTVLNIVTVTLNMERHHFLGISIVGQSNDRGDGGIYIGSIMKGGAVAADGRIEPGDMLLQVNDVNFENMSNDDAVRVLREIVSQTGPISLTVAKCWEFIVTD

T6: GST-LIMK2 PDZ domain fusion protein (human, UniProt P53671 147-237)
T6 construct: also called human LIM domain kinase 2; not shown: glutathione S-transferase (GST) encoded by pGEX-3X
T6 sequence: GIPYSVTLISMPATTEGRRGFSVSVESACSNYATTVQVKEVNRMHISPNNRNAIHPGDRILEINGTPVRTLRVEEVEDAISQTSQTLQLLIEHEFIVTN

T7: GST-SYN1a (alpha1-syntrophin) PDZ domain fusion protein (Homo sapiens (Human), UniProt Q13424 84-179)
T7 construct: also called SYN 1 α; not shown: glutathione S-transferase (GST) encoded by pGEX-3X
T7 sequence: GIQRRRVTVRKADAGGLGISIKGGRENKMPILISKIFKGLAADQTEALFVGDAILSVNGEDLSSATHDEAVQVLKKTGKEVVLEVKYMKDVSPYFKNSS

B1: FceRIb C-terminal peptide AA25L (peptide)
peptide: Biotin-YSATYSELEDPGEMSPPIDL
notes: also called FceRlb; FcεRβI
B2: FasLigand C-terminal peptide AA23L-M (peptide)
peptide: Biotin-SSKSKSSEESQTFFGLYKL
modifications: not fully specified
B3: CD62E C-terminal peptide AA48L (peptide)
peptide: Biotin-SSSQSLESDGSYQKPSYIL
B4: CC CKR-1R C-terminal peptide AA41L (peptide)
peptide: Biotin-LERVSSTSPSTGEHELSAGF
B5: CD6 C-terminal peptide AA6L (peptide)
peptide: Biotin-SPQPDSTDNDDYDDISAA
B6: CD166 (CD6L) C-terminal peptide AA20L (peptide)
peptide: Biotin-DLGNMEENKKLEENNHKTEA
B7: CC CKR-2 C-terminal peptide AA42L (peptide)
peptide: Biotin-GKGKSIGRAPEASLQDKEGA
B8: CD148 (DEP-1) C-terminal peptide AA19L (ending GYIA) (peptide)
peptide: Biotin-ENLAPVTTFGKTNGYIA
B9: CLASP-4 C-terminal peptide AA3L-V (peptide)
peptide: Biotin-CAISGTSSDRGYGSPRYAEV

Target: T1, GST-NeDLG PDZ domains 1-2 fusion protein
Assay: A/G assays

Row | Binder | binding result
1 | B1 | no binding
2 | B2 | no binding
3 | B3 | no binding
4 | B4 | no binding
5 | B5 | no binding
6 | B6 | no binding
7 | B7 | no binding
8 | B8 | no binding

Target: T2, GST-MINT3 PDZ domain fusion protein
Assay: A/G assays

Row | Binder | binding result
9 | B9 | no binding
10 | B1 | no binding
11 | B2 | no binding
12 | B3 | no binding
13 | B4 | no binding
14 | B5 | no binding
15 | B6 | no binding
16 | B7 | no binding
17 | B8 | no binding

Target: T3, GST-MPP2 PDZ domain fusion protein
Assay: A/G assays

Row | Binder | binding result
18 | B9 | no binding
19 | B1 | no binding
20 | B2 | no binding
21 | B3 | no binding
22 | B4 | no binding
23 | B5 | no binding
24 | B6 | no binding
25 | B7 | no binding
26 | B8 | no binding

Target: T4, GST-TAX2 PDZ domain fusion protein
Assay: A/G assays

Row | Binder | binding result
27 | B9 | no binding
28 | B1 | no binding
29 | B2 | no binding
30 | B3 | no binding
31 | B4 | no binding
32 | B5 | no binding
33 | B6 | no binding
34 | B7 | no binding
35 | B8 | no binding

Target: T5, GST-DVL1 PDZ domain fusion protein
Assay: A/G assays

Row | Binder | binding result
36 | B9 | no binding
37 | B1 | no binding
38 | B2 | no binding
39 | B3 | no binding
40 | B4 | no binding
41 | B5 | no binding
42 | B6 | no binding
43 | B7 | no binding
44 | B8 | no binding

Target: T6, GST-LIMK2 PDZ domain fusion protein
Assay: A/G assays

Row | Binder | binding result
45 | B9 | no binding
46 | B1 | no binding
47 | B2 | no binding
48 | B3 | no binding
49 | B4 | no binding
50 | B5 | no binding
51 | B6 | no binding
52 | B7 | no binding
53 | B8 | no binding

Target: T7, GST-SYN1a (alpha1-syntrophin) PDZ …
Assay: A/G assays

Row | Binder | binding result
54 | B9 | no binding
55 | B1 | no binding
56 | B2 | no binding
57 | B3 | no binding
58 | B4 | no binding
59 | B5 | no binding
60 | B6 | no binding
61 | B7 | no binding
62 | B8 | no binding

— US6942981
